Measurements as given in patent publication US20030059769, “High affinity nucleic acid ligands to lectins” (published 2003).

What was measured:
L-selectin (LS-Rg) [1] = target: T1, L-selectin (LS-Rg) (Homo sapiens, UniProt P14151 P14151:39-332); assay: filter; affinity reduction versus full length LF1807; called LF1807T5 in Table 16; conditions: tags: human IgG2 Fc fusion; chain copies: 2 (stated dimer)
T1 sequence: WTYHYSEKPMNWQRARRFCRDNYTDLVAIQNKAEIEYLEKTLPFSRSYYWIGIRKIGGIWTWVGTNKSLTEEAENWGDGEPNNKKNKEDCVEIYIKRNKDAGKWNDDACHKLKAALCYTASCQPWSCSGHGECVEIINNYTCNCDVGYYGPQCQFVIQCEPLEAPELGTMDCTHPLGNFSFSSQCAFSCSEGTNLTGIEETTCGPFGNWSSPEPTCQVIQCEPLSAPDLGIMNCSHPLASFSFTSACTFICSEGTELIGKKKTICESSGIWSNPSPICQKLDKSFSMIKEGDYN
Description: (§1) As described in SELEX Patent Applications, a nitrocellulose filter partitioning method was used to determine the affinity of RNA ligands for LS-Rg and for other proteins. Filter discs (nitrocellulose/cellulose acetate mixed matrix, 0.45 μm pore size, Millipore) were placed on a vacuum manifold and washed with 3 ml of SHMCK 140 buffer under vacuum. Reaction mixtures, containing ³²P labeled RNA pools and unlabeled LS-Rg, were incubated in SHMCK 140 for 10-20 min at 37° C., and then immediately washed with 3 ml SHMCK 140. The filters were air-dried and counted in a Beckman LS6500 liquid scintillation counter without fluor. Alternatively, binding studies employed 96 well micro-titer manifolds essentially as described in Example 13, paragraph E.
Predictions of minimal high affinity sequences for family 1 ligands can be made and serve as a partial test of the postulated secondary structure.

[2] = target: T2, L-selectin on PBMC / lymphocytes (Homo sapiens, UniProt P14151 P14151:39-372); assay: flow; half-saturation, monomer; conditions: hairpin
T2 sequence: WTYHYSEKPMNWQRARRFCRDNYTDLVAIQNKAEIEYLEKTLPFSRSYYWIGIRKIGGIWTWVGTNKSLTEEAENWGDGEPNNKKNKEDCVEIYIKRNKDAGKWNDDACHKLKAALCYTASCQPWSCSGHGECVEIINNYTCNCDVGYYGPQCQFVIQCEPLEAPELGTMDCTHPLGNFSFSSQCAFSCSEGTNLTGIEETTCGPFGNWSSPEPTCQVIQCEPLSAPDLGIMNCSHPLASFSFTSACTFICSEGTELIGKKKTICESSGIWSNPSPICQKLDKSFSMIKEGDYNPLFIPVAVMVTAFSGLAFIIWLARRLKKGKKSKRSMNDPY
Source text: A variety of monomeric nucleic acid ligands and multivalent Complexes have been examined in flow cytometry.

L-selectin (LS-Rg) [3] = target: T1, L-selectin (LS-Rg); assay: filter; room temperature; repeat of Table 13 (57 pM); conditions: tags: human IgG2 Fc fusion; chain copies: 2 (stated dimer)
Description: As described in SELEX Patent Applications and in Example 7, paragraph C, a nitrocellulose filter partitioning method was used to determine the affinity of ssDNA ligands for LS-Rg and for other proteins. For these experiments a Gibco BRL 96 well manifold was substituted for the 12 well Millipore manifold used in Example 7 and radioactivity was determined with a Fujix BAS100 phosphorimager. Bindin, data were analyzed as described in Example 7, paragraph C.

P-selectin (PS-Rg) [4] = target: T3, P-selectin (PS-Rg) (Homo sapiens, UniProt P16109 P16109:42-321); assay: filter; streptavidin complex; conditions: tags: human IgG Fc fusion; chain copies: 2 (stated dimer)
P-selectin (PS-Rg) [5] = target: T3, P-selectin (PS-Rg); assay: filter; Table 21 gives 63 pM; conditions: tags: human IgG Fc fusion; chain copies: 2 (stated dimer)
P-selectin (PS-Rg) [6] = target: T3, P-selectin (PS-Rg); assay: inhibition; sialyl-LewisX; conditions: tags: human IgG Fc fusion; chain copies: 2 (stated dimer)
P-selectin (PS-Rg) [7] = target: T3, P-selectin (PS-Rg); assay: filter; conditions: tags: human IgG Fc fusion; chain copies: 2 (stated dimer)
[8] = target: T2, L-selectin on PBMC / lymphocytes; assay: flow; half-saturation; described as LD201T4 fork dimer; conditions: label: fluorescein
soluble L-selectin = target: T4, soluble L-selectin (Homo sapiens, UniProt P14151 P14151:39-332); assay: filter; 37 C; table prints SEQ 339; conditions: tags: R&D Systems
T4 sequence: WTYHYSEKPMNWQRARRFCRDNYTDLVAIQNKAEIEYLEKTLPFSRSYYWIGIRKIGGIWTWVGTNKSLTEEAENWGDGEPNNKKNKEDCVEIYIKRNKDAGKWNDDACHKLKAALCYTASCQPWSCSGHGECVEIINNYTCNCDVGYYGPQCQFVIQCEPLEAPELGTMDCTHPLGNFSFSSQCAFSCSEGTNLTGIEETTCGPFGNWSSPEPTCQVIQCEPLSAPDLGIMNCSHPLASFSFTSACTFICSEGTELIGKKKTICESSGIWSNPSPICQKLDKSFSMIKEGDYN
Description: Unless otherwise indicated, all materials used in the 2′-F RNA SELEX against the L-selectin/IgG2 chimera, LS-Rg, were identical to those of Examples 7, paragraph A and 13, paragraph A. SHMCK-140 buffer, used for all SELEX and binding experiments, was 1 mM CaCl₂, 1 mM MgCC₂, 140 mM NaCl, 5 mM KCl. and 20 mM HEPES, pH 7.4. A soluble form of L-selectin, corresponding to the extracellular domains, was purchased from R&D Systems and used for some nitrocellulose filter binding experiments.
as §1

[9] = target: T2, L-selectin on PBMC / lymphocytes; assay: flow; half-saturation; described as LD201T4 dumbell dimer; conditions: label: fluorescein
P-selectin (PS-Rg) [10] = target: T3, P-selectin (PS-Rg); assay: inhibition; sialyl-LewisX; text says about 2 nM; conditions: tags: human IgG Fc fusion; chain copies: 2 (stated dimer)
Description: The ability of evolved RNA pools or cloned ligands to inhibit the binding of PS-Rg to sialyl-Lewis^x was tested in competitive ELISA assays (C. Foxall et al., 1992, supra). For these assays, the wells of Corning (25801) 96 well microtiter plates were coated with 100 ng of a sialyl-Lewis^x/BSA conjugate, air dried overnight, washed with 300 μl of PBS(−) and then blocked with 1% BSA in HSMC for 60 min at room temperature. RNA ligands were incubated with PS-Rg in HSMC/1% BSA at room temperature for 15 min. After removal of the blocking solution, 50 μl of PS-Rg (10 nM) or a PS-Rg (10 nM)/RNA ligand mix was added to the coated, blocked wells and incubated at room temperature for 60 minutes. The binding solution was removed, wells were washed with 300 μl of PBS(−) and then probed with HRP conjugated anti-human IgG, at room temperature to quantitate PS-Rg binding. After a 30 minute incubation at room temperature in the dark with OPD peroxidase substrate (Sigma P9187), the extent of PS-Rg binding and percent inhibition was determined from the OD₄₅₀.

T3 sequence (P16109 42-321, one chain of several): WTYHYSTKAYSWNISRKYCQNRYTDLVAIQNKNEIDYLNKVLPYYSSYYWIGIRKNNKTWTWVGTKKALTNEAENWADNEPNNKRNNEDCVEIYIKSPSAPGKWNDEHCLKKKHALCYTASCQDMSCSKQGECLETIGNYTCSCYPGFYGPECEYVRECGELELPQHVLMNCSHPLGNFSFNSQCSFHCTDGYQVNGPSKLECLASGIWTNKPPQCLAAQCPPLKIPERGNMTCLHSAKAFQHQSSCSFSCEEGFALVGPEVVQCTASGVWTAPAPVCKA

GGAGUCUUAGGCAGCGCGUUUUCGAGCUACUCC (ssRNA, 2'-F C and U) [LF1807T4]
binding signal (L-selectin (LS-Rg) [1]): ~3 fold

CCAGTACAAGGTGCTAAACGTAATGG (ssDNA) [LD201T4]
EC50 [2]: 20 nM

B1: LD230 (ssDNA)
DNA: CTACCTACGATCTGACTAGCTGCACACCTGAGGGTTACAAGGCGCTAGACGTAACCTCTCGCTTACTCTCATGTAGTTCC
Kd (L-selectin (LS-Rg) [3]): 0.044 nM

CUCAACGAGCCAGGAACAUCGACGUCAGCAAACGCGAG (ssRNA, 2'-F C and U, biotin bound to streptavidin) [PF377s1B:SA]
Kd (P-selectin (PS-Rg) [4]): 0.03 nM

CUCAACGAACCACGGGGAAAUCCACCAGUAACACGCGAG (ssRNA, 2'-F C and U) [PF398s1]
Kd (P-selectin (PS-Rg) [5]): 0.178 nM | IC50 (P-selectin (PS-Rg) [6]): 2 nM

CUCAACGAGUUCACAUGGGAGCAAUCUCCGAAUAAACAACACGCGAG (ssRNA, 2'-F C and U) [PF424s1]
Kd (P-selectin (PS-Rg) [7]): 0.178 nM

B2: NX303 fork dimer (ssDNA)
DNA: TCCAGTACAAGGTGCTAAACGTAATGGTT
modifications: two copies on forked 20 kDa PEG, 5' amino C6 dT, 3'-3' terminal [1 = 5' amino modifier C6 dT; 29 = 3'-3' terminal dT; two identical copies on forked 20 kDa PEG (PEG left out)]
EC50 [8]: 0.6 nM

B3: LF1520 (ssRNA)
RNA: GGGAGGACGAUGCGGAUCGAUUUCAUGCGUUUUUCGAGUGACGAUCAGACGACUCGCCCGA
modifications: 2'-F C and U
Kd (soluble L-selectin): 0.5 nM

B4: NX303 dumbell dimer (ssDNA)
DNA: TCCAGTACAAGGTGCTAAACGTAATGGTT
modifications: two copies on PEG 3400, 5' amino C6 dT, 3'-3' terminal [1 = 5' amino modifier C6 dT; 29 = 3'-3' terminal dT; two identical copies on PEG 3400 (PEG left out)]
EC50 [9]: 0.1 nM

B5: PF377 (ssRNA)
RNA: GGGAGACAAGAAUAAACGCUCAACGAGCCAGGAACAUCGACGUCAGCAAACGCGAGCGCAACCAGUAACACCUUCGACAGGAGGCUCACAACAGGC
modifications: 2'-F C and U
IC50 (P-selectin (PS-Rg) [10]): 3 nM
